Patent US20200368345A1

B1: BHA543-551 peptide (peptide)
peptide: GLDNHTILL
modifications: not checked
B2: PB1413-421 peptide (peptide)
peptide: NMLSTVLGV
modifications: not checked

Biological target: HLA-A*02:01 molecule (as used for thermal stability and structures) (human)
Assay: thermal stability of the peptide-HLA-A*02:01 complex

| Binder | Tm (temperature required to unfold 50% of the protein) of the pHLA-A*02:01 complex [° C.] |
| --- | --- |
| B1 | 72 |
| B2 | 72 |
